± gives the standard deviation of the averaged measurements.

In this data set the test system is Saccharomyces cerevisiae. As to the kind of experiment: protein stability index of tFT-peptide fusion (C-terminal peptide) (PSI (0-1 scale)); higher = more stable (slower turnover). As to conditions: temperature: 30 C. As for the experimental part: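 MPS profiling in S. cerevisiae of the yeast C-terminome library: the last 12 aa of each annotated ORF are fused to the C-terminus of a sfGFP-mCherry timer, after a GGGS linker. Cells are FACS-sorted into 8 mCherry/sfGFP bins and deep-sequenced. PSI runs from 0 (unstable) to 1 (stable); wild type and das1Δ backgrounds, two technical replicates each.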

Where [1] appears, read: genetic background: das1 deletion.

For the sequence SLQFIGEETSSL [YDL026W C-terminal 12 aa], the protein stability index amounted to 0.708 ± 0.01 under setting [1] and 0.684 ± 0.012 (genetic background: wild type).
On to SLSLRNHNSSQL [CLN1 C-terminal 12 aa], for which the protein stability index reads like this: under setting [1], 0.708 ± 0.024; (genetic background: wild type) 0.701 ± 0.017.
With SNKLKGNPNQVF [MTG1 C-terminal 12 aa], the protein stability index is 0.721 ± 0.0079 under setting [1] and 0.75045 ± 0.00033 (genetic background: wild type).
Regarding SNRILALGYILL [ATG32 C-terminal 12 aa], the protein stability index is 0.669 ± 0.0077 under setting [1] and 0.658 ± 0.0079 (genetic background: wild type).
For the sequence SNSLPKLKFHSM [OCA6 C-terminal 12 aa], the protein stability index runs as follows: under setting [1], 0.725 ± 0.044; (genetic background: wild type) 0.681 ± 0.011.
As for SPKEEKRFKFKL [YGR127W C-terminal 12 aa], the protein stability index is, setting by setting: under setting [1], 0.739 ± 0.046; (genetic background: wild type) 0.801 ± 0.047.
Consider SPPEEESQHGDV [SHB17 C-terminal 12 aa], for which the protein stability index is 0.696 ± 0.022 under setting [1] and 0.75 ± 0.032 (genetic background: wild type).
In turn, SQQNNNGNQNRY [RNQ1 C-terminal 12 aa] showed a protein stability index under setting [1] of 0.7168 ± 0.002 and a protein stability index (genetic background: wild type) of 0.6682 ± 0.0039.
For the sequence SRSSIKNIVKPK [MRX15 C-terminal 12 aa], the protein stability index came to 0.689 ± 0.048 under setting [1] and 0.75 ± 0.052 (genetic background: wild type).
As for SSAASSQVPAST [PTK1 C-terminal 12 aa], the protein stability index by setting is: under setting [1], 0.694 ± 0.025; (genetic background: wild type) 0.6743 ± 0.0022.
SSDRSAAEKRNT [TYR1 C-terminal 12 aa] gave a protein stability index under setting [1] of 0.699 ± 0.029 and a protein stability index (genetic background: wild type) of 0.673 ± 0.039.
In the case of SSEEGYYIAGSI [IRC23 C-terminal 12 aa], the protein stability index reads like this: under setting [1], 0.8201 ± 0.0072; (genetic background: wild type) 0.81 ± 0.01.
In the case of SSGCRRLMVGYN [ERC1 C-terminal 12 aa], the protein stability index is 0.6979 ± 0.0017 under setting [1] and 0.684 ± 0.0074 (genetic background: wild type).
On the same counts, the results for SSKKNNKFRRIR [CST9 C-terminal 12 aa] are 0.685 ± 0.019 and 0.714 ± 0.032.
SSVKKKLYPKSK [RIM11 C-terminal 12 aa]: the protein stability index was 0.704 ± 0.015 under setting [1] and 0.693 ± 0.073 (genetic background: wild type).
Regarding STDETPDNENKQ [SGT2 C-terminal 12 aa], the protein stability index runs as follows: under setting [1], 0.6998 ± 0.0031; (genetic background: wild type) 0.67 ± 0.0077.
For the sequence STDQLPELSFEV [TVP38 C-terminal 12 aa], the protein stability index runs as follows: under setting [1], 0.699 ± 0.013; (genetic background: wild type) 0.722 ± 0.0051.
On the same counts, the results for STFTLNLEDVSK [ECM12 C-terminal 12 aa] are 0.711 ± 0.0086 and 0.634 ± 0.016.
Turning to STSCDVIQSRNA [MET22 C-terminal 12 aa], the protein stability index by setting is: under setting [1], 0.71 ± 0.03; (genetic background: wild type) 0.692 ± 0.0075.
For the sequence SVLSGSAEFVFY [NCA3 C-terminal 12 aa], the protein stability index stood at 0.7188 ± 0.0024 under setting [1] and 0.7148 ± 0.0061 (genetic background: wild type).
For SVLVCFLLRRAS [YJR087W C-terminal 12 aa], the protein stability index reads like this: under setting [1], 0.506 ± 0.02; (genetic background: wild type) 0.342 ± 0.0095.
Take SVLYAIDFSAAF [EMA35 C-terminal 12 aa]: the protein stability index was 0.717 ± 0.012 under setting [1] and 0.703 ± 0.02 (genetic background: wild type).
On to SVPKPSQARFSV [UTR1 C-terminal 12 aa], for which the protein stability index is, setting by setting: under setting [1], 0.684 ± 0.025; (genetic background: wild type) 0.703 ± 0.025.
In the case of SYKDTKRWMFKK [PSF3 C-terminal 12 aa], the protein stability index by setting is: under setting [1], 0.724 ± 0.057; (genetic background: wild type) 0.715 ± 0.078.
On the same counts, the results for SYLKGYIGCKIS [YPR092W C-terminal 12 aa] are 0.745 ± 0.042 and 0.569 ± 0.033.
On the same counts, the results for “TAFGISSCRDLA [YLR163W-A C-terminal 12 aa]” are 0.707 ± 0.016 and 0.6829 ± 0.00097.
TARPFPAPNIAA [YLR349W C-terminal 12 aa] had a protein stability index under setting [1] of 0.728 ± 0.029 and a protein stability index (genetic background: wild type) of 0.67 ± 0.016.
Consider TASQLLEVQSKS [YGL039W C-terminal 12 aa], for which the protein stability index stood at 0.68 ± 0.023 under setting [1] and 0.6694 ± 0.006 (genetic background: wild type).
With TDCGLETEEIDI [RAD14 C-terminal 12 aa], the protein stability index by setting is: under setting [1], 0.663 ± 0.025; (genetic background: wild type) 0.6823 ± 0.0022.
On the same counts, the results for TDDNNIQTILLK [YIG1 C-terminal 12 aa] are 0.679 ± 0.012 and 0.704 ± 0.044.
As for TEFEKIHRNTFN [REX4 C-terminal 12 aa], the protein stability index is 0.706 ± 0.012 under setting [1] and 0.723 ± 0.033 (genetic background: wild type).
For TEIDESFEMTDF [KEX1 C-terminal 12 aa], the protein stability index was 0.723 ± 0.021 under setting [1] and 0.7471 ± 0.0064 (genetic background: wild type).
As for TGFFGKLKKLFK [CRP1 C-terminal 12 aa], the protein stability index by setting is: under setting [1], 0.762 ± 0.0086; (genetic background: wild type) 0.724 ± 0.0086.
On the same counts, the results for TGFKDKFLDALL [PUT4 C-terminal 12 aa] are 0.689 ± 0.014 and 0.69 ± 0.011.
As to TGLAGEGDTLVT [TAG1 C-terminal 12 aa], the protein stability index stood at 0.694 ± 0.007 under setting [1] and 0.685 ± 0.021 (genetic background: wild type).
Consider THLQQVAVSGQA [SEC23 C-terminal 12 aa], for which the protein stability index is, setting by setting: under setting [1], 0.572 ± 0.0092; (genetic background: wild type) 0.618 ± 0.014.
Take THMKPWYRRWFW [INA17 C-terminal 12 aa]: the protein stability index reads like this: under setting [1], 0.742 ± 0.012; (genetic background: wild type) 0.718 ± 0.018.
For TIGWLQESLAGI [HOT1 C-terminal 12 aa], the protein stability index is, setting by setting: under setting [1], 0.706 ± 0.0076; (genetic background: wild type) 0.684 ± 0.029.
As for TIISKGYAKIRD [TAF4 C-terminal 12 aa], the protein stability index is, setting by setting: under setting [1], 0.68 ± 0.022; (genetic background: wild type) 0.7 ± 0.049.
TIKKGTTLEPIA [GCD11 C-terminal 12 aa]: the protein stability index is, setting by setting: under setting [1], 0.6896 ± 0.0033; (genetic background: wild type) 0.7 ± 0.028.
Consider TILHQQVNSKLH [YHR180W C-terminal 12 aa], for which the protein stability index by setting is: under setting [1], 0.7181 ± 0.00078; (genetic background: wild type) 0.627 ± 0.02.
Turning to TILLFYPPLLKR [YDR544C C-terminal 12 aa], the protein stability index under setting [1] worked out at 0.627 ± 0.0074 and the protein stability index (genetic background: wild type) worked out at 0.6119 ± 0.0047.
With TIPAAKRTKPSA [LYS20 C-terminal 12 aa], the protein stability index reads like this: under setting [1], 0.69801 ± 0.00025; (genetic background: wild type) 0.703 ± 0.014.
Consider TKCSLKNSISLT [VAB2 C-terminal 12 aa], for which the protein stability index stood at 0.677 ± 0.012 under setting [1] and 0.733 ± 0.086 (genetic background: wild type).
TKEAKRRAMKKK [UME6 C-terminal 12 aa]: the protein stability index is 0.706 ± 0.028 under setting [1] and 0.677 ± 0.013 (genetic background: wild type).
For the sequence TKKANILDPDYL [FLC1 C-terminal 12 aa], the protein stability index runs as follows: under setting [1], 0.685 ± 0.023; (genetic background: wild type) 0.728 ± 0.032.
With TKLGEQRHLCTD [ESL2 C-terminal 12 aa], the protein stability index runs as follows: under setting [1], 0.698 ± 0.019; (genetic background: wild type) 0.7 ± 0.013.
Turning to TKPNNGLNITNY [MTL1 C-terminal 12 aa], the protein stability index runs as follows: under setting [1], 0.689 ± 0.019; (genetic background: wild type) 0.716 ± 0.046.
In the case of TKSIFPSVNPSA [GPB2 C-terminal 12 aa], the protein stability index by setting is: under setting [1], 0.694 ± 0.02; (genetic background: wild type) 0.669 ± 0.019.
As for “TLDRASNCWRGT [YBL006W-A C-terminal 12 aa]”, the protein stability index was found to be 0.709 ± 0.016 under setting [1] and 0.714 ± 0.062 (genetic background: wild type).
On the same counts, the results for TLHDDRESKSED [CMK2 C-terminal 12 aa] are 0.6829 ± 0.0059 and 0.694 ± 0.036.
The sequence TLIAAGIIRTGR [STI1 C-terminal 12 aa] came in with a protein stability index under setting [1] of 0.727 ± 0.025 and a protein stability index (genetic background: wild type) of 0.702 ± 0.016.
Consider TLKSTSSTNSPD [SMP1 C-terminal 12 aa], for which the protein stability index turned out to be 0.703 ± 0.011 under setting [1] and 0.6844 ± 0.006 (genetic background: wild type).
Regarding TLVFDVELLKVN [FPR1 C-terminal 12 aa], the protein stability index reads like this: under setting [1], 0.6084 ± 0.0029; (genetic background: wild type) 0.251 ± 0.033.
In the case of TMNCNNADDMLF [YGR190C C-terminal 12 aa], the protein stability index is 0.6995 ± 0.004 under setting [1] and 0.677 ± 0.022 (genetic background: wild type).
TNVGLKLIAIAK [PPM2 C-terminal 12 aa] had a protein stability index under setting [1] of 0.655 ± 0.034 and a protein stability index (genetic background: wild type) of 0.649 ± 0.017.
In turn, TNVQANSYRKVP [SDP1 C-terminal 12 aa] returned a protein stability index under setting [1] of 0.6856 ± 0.0029 and a protein stability index (genetic background: wild type) of 0.522 ± 0.054.
With TPGGGGFGQYKD [OXP1 C-terminal 12 aa], the protein stability index reads like this: under setting [1], 0.7088 ± 0.00061; (genetic background: wild type) 0.677 ± 0.03.
Consider TPLGPKPDIRPL [ECM4 C-terminal 12 aa], for which the protein stability index was 0.727 ± 0.03 under setting [1] and 0.67 ± 0.016 (genetic background: wild type).
On the same counts, the results for TPSKEINFDDDF [RNR4 C-terminal 12 aa] are 0.72 ± 0.011 and 0.723 ± 0.041.
On to TQLRYTSRGLYR [ECM30 C-terminal 12 aa], for which the protein stability index runs as follows: under setting [1], 0.699 ± 0.018; (genetic background: wild type) 0.689 ± 0.023.
On the same counts, the results for TQSGDDYTIRLT [APM1 C-terminal 12 aa] are 0.703 ± 0.015 and 0.698 ± 0.014.
As for TRPPCSPIAGYA [YOR345C C-terminal 12 aa], the protein stability index under setting [1] amounted to 0.608 ± 0.017 and the protein stability index (genetic background: wild type) was found to be 0.628 ± 0.012.
“TSCNLNSSVVRS [YOR186C-A C-terminal 12 aa]” returned a protein stability index under setting [1] of 0.708 ± 0.035 and a protein stability index (genetic background: wild type) of 0.695 ± 0.0014.
As to TSPKESFFKEVI [LPX2 C-terminal 12 aa], the protein stability index is, setting by setting: under setting [1], 0.715 ± 0.03; (genetic background: wild type) 0.711 ± 0.022.
As for TTPTLPTFRTVA [FKS3 C-terminal 12 aa], the protein stability index by setting is: under setting [1], 0.686 ± 0.018; (genetic background: wild type) 0.6971 ± 0.0014.
For TTTGDKKSEEKQ [TCB2 C-terminal 12 aa], the protein stability index is, setting by setting: under setting [1], 0.685 ± 0.027; (genetic background: wild type) 0.69 ± 0.032.

Values taken from the supplement of paper PMC10724198.
